T1: FcγRIIb extracellular domain with C-terminal His tag (human, UniProt P31994 43-217)
T1 construct: extracellular domain; also called FcgRIIb; 2b; not shown: His tag at the C terminus
T1 sequence (looked up): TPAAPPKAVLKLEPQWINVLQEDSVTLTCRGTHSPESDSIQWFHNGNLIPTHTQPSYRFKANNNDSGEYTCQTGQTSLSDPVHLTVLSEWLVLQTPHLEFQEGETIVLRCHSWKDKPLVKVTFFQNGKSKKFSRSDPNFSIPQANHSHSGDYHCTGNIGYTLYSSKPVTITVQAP

B1: GpH7-A5/GpH7-B3 variant K326_10E/GpL16-k0 (antibody, human IgG1, kappa)
heavy 1: not shown
heavy 2: not shown
light: DIVMTQSPLSLPVTPGEPASISCQASESLVHSNRNTYLHWYLQKPGQSPQLLIYKVSNRFSGVPDRFSGSGSGTDFTLKISRVEAEDVGVYYCSQNTHVPPTFGQGTKVEIERTVAAPSVFIFPPSDEQLKSGTASVVCLLNNFYPREAKVQWKVDNALQSGNSQESVTEQDSKDSTYSLSSTLTLSKADYEKHKVYACEVTHQGLSSPVTKSFNRGEC
notes: also called He Ab K326_10E
B2: GpH7-A5/GpH7-B3 variant K326_19Q/GpL16-k0 (antibody, human IgG1, kappa)
heavy 1: not shown
heavy 2: not shown
light: DIVMTQSPLSLPVTPGEPASISCQASESLVHSNRNTYLHWYLQKPGQSPQLLIYKVSNRFSGVPDRFSGSGSGTDFTLKISRVEAEDVGVYYCSQNTHVPPTFGQGTKVEIERTVAAPSVFIFPPSDEQLKSGTASVVCLLNNFYPREAKVQWKVDNALQSGNSQESVTEQDSKDSTYSLSSTLTLSKADYEKHKVYACEVTHQGLSSPVTKSFNRGEC
notes: also called He Ab K326_19Q
B3: GpH7-A5/GpH7-B3 variant K326_20W/GpL16-k0 (antibody, human IgG1, kappa)
heavy 1: not shown
heavy 2: not shown
light: DIVMTQSPLSLPVTPGEPASISCQASESLVHSNRNTYLHWYLQKPGQSPQLLIYKVSNRFSGVPDRFSGSGSGTDFTLKISRVEAEDVGVYYCSQNTHVPPTFGQGTKVEIERTVAAPSVFIFPPSDEQLKSGTASVVCLLNNFYPREAKVQWKVDNALQSGNSQESVTEQDSKDSTYSLSSTLTLSKADYEKHKVYACEVTHQGLSSPVTKSFNRGEC
notes: also called He Ab K326_20W
B4: GpH7-A5/GpH7-B3 variant K326_16H/GpL16-k0 (antibody, human IgG1, kappa)
heavy 1: not shown
heavy 2: not shown
light: DIVMTQSPLSLPVTPGEPASISCQASESLVHSNRNTYLHWYLQKPGQSPQLLIYKVSNRFSGVPDRFSGSGSGTDFTLKISRVEAEDVGVYYCSQNTHVPPTFGQGTKVEIERTVAAPSVFIFPPSDEQLKSGTASVVCLLNNFYPREAKVQWKVDNALQSGNSQESVTEQDSKDSTYSLSSTLTLSKADYEKHKVYACEVTHQGLSSPVTKSFNRGEC
notes: also called He Ab K326_16H
B5: GpH7-A5/GpH7-B3 variant K334_03V/GpL16-k0 (antibody, human IgG1, kappa)
heavy 1: not shown
heavy 2: not shown
light: DIVMTQSPLSLPVTPGEPASISCQASESLVHSNRNTYLHWYLQKPGQSPQLLIYKVSNRFSGVPDRFSGSGSGTDFTLKISRVEAEDVGVYYCSQNTHVPPTFGQGTKVEIERTVAAPSVFIFPPSDEQLKSGTASVVCLLNNFYPREAKVQWKVDNALQSGNSQESVTEQDSKDSTYSLSSTLTLSKADYEKHKVYACEVTHQGLSSPVTKSFNRGEC
notes: also called He Ab K334_03V
B6: GpH7-A5/GpH7-B3 variant K334_02A/GpL16-k0 (antibody, human IgG1, kappa)
heavy 1: not shown
heavy 2: not shown
light: DIVMTQSPLSLPVTPGEPASISCQASESLVHSNRNTYLHWYLQKPGQSPQLLIYKVSNRFSGVPDRFSGSGSGTDFTLKISRVEAEDVGVYYCSQNTHVPPTFGQGTKVEIERTVAAPSVFIFPPSDEQLKSGTASVVCLLNNFYPREAKVQWKVDNALQSGNSQESVTEQDSKDSTYSLSSTLTLSKADYEKHKVYACEVTHQGLSSPVTKSFNRGEC
notes: also called He Ab K334_02A
B7: GpH7-A5/GpH7-B3 variant K326_15Y/GpL16-k0 (antibody, human IgG1, kappa)
heavy 1: not shown
heavy 2: not shown
light: DIVMTQSPLSLPVTPGEPASISCQASESLVHSNRNTYLHWYLQKPGQSPQLLIYKVSNRFSGVPDRFSGSGSGTDFTLKISRVEAEDVGVYYCSQNTHVPPTFGQGTKVEIERTVAAPSVFIFPPSDEQLKSGTASVVCLLNNFYPREAKVQWKVDNALQSGNSQESVTEQDSKDSTYSLSSTLTLSKADYEKHKVYACEVTHQGLSSPVTKSFNRGEC
notes: also called He Ab K326_15Y
B8: GpH7-A5/GpH7-B3 variant K326_14T/GpL16-k0 (antibody, human IgG1, kappa)
heavy 1: not shown
heavy 2: not shown
light: DIVMTQSPLSLPVTPGEPASISCQASESLVHSNRNTYLHWYLQKPGQSPQLLIYKVSNRFSGVPDRFSGSGSGTDFTLKISRVEAEDVGVYYCSQNTHVPPTFGQGTKVEIERTVAAPSVFIFPPSDEQLKSGTASVVCLLNNFYPREAKVQWKVDNALQSGNSQESVTEQDSKDSTYSLSSTLTLSKADYEKHKVYACEVTHQGLSSPVTKSFNRGEC
notes: also called He Ab K326_14T

This note sets out measurements from patent publication US20150344570A1 (published 2015).

The assay addresses T1, FcγRIIb extracellular domain with …. Put plainly: SPR, relative binding, HeCon Ab = 100. The method, then:
Analysis of interaction between objective antibody and the FcγR was carried out using Biacore T100 (GE Healthcare). HBS-EP+ (GE Healthcare) was used as the running buffer, and the measurement temperature was set to 25° C. Chips produced by immobilizing the antigen peptide by the amine coupling method to a Series S Sencor Chip CM5 (GE Healthcare), or alternatively, chips produced by allowing preliminarily biotinylated antigen peptides to interact with and immobilize onto a Series S Sensor Chip SA (certified) (GE Healthcare) were used. Antibodies of interest were captured onto an antigen peptide-immobilized chip, and allowed to interact to each FcγR diluted with running buffer. To regenerate and repeatedly use the chip, the antibodies captured on the chip were washed off by reacting 10 mM glycine-HCl, pH 1.5.
In the case of B1, the He/Con_2b was 200 % of control. For B2, the He/Con_2b was 139 % of control.

Take B3: the He/Con_2b was 148 % of control. For B4, the He/Con_2b was 119 % of control. The figure for B5 is 125 % of control. With B6, the He/Con_2b was 108 % of control.

In the case of B7, the He/Con_2b was 159 % of control.

Take B8: the He/Con_2b is 150 % of control.
